Source: US20220348651A1, “ENTPD2 ANTIBODIES, COMBINATION THERAPIES, AND METHODS OF USING THE ANTIBODIES AND COMBINATION THERAPIES” (Novartis AG, priority 2019, published 2022)

Target: T1, mouse ENTPD2 (Mus musculus, UniProt O55026)
T1 construct: expressed in transfected cells; host or cells: NIH/3T3 (retroviral transduction)
T1 sequence (O55026 1-495): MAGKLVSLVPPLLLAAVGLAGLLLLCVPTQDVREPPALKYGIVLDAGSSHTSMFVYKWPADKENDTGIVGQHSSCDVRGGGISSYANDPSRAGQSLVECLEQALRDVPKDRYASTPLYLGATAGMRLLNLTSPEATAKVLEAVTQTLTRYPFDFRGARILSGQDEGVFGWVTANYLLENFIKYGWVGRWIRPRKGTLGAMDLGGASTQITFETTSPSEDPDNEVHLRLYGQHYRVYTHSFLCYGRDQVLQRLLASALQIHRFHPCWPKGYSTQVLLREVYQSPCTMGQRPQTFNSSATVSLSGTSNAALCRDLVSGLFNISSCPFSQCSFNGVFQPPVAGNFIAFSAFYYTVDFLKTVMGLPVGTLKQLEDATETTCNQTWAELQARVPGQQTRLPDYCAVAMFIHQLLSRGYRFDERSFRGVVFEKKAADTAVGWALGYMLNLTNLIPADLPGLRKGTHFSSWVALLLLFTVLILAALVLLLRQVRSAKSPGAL
Test: Mouse ENTPD2 NIH/3T3 cell-based functional assay
Source text: Biochemical and cell-based functional assays were developed in-house to understand functional impact of anti-ENTPD2 Abs against purified extracellular domain of ENTPD2 (residues 29-462), as well as against the fully intact protein in the context of the native cell-based conformation. ENTPD2 hydrolyzes ATP to ADP, which can subsequently be detected using the HTRF Transcreener ADP2 TR-FRET Red Assay (BellBrook Labs, Madison, Wis.) where ENTPD2-produced ADP would compete with the ADP Tracer for binding to the anti-ADP-Tb antibody. The resulting signal is inversely proportional to the concentration of ADP in the sample.
To establish cell-based functional assays, human/cyno/mouse ENTPD2-engineered NIH/3T3 cells or RKO (ATCC, Manassa Va.) colorectal cancer cells with endogenous ENTPD2 expression were plated overnight at 150, 200 and 250 cells per well for NIH/3T3 mouse, cyno and human ENTPD2 lines, respectively, or 1000 cells per well for RKO in 384-well tissue culture plate, in 30 μl per well (Perkin Elmer, Waltham, Mass.). The following day cells were pre-incubated with Anti-ENTPD2 Abs in dose response for 60 min at 37° C., 5% CO2 (10 μl of 5× antibody dose per well), and subsequently stimulated with a final concentration of 10 μM ATP (Teknova, Hollister, Calif.) for 20 minutes at room temperature (10 μl of 5× (50 μM) ATP per well). Reactions were quenched with 40 mM EDTA/40 mM EGTA, 25 μl per well, and 15 μl of quenched media was transferred to low volume Proxiplates (PerkinElmer, Waltham, Mass.) for ADP detection. ADP production was detected with the Transcreener ADP2 TR-FRET Red Assay (BellBrook Labs, Madison, Wis.) with a final concentration of 4 nM ADP2 antibody and 13.4 nM of ADP Tracer in wells (4× solution was prepared and 5 μL of “Detection Reagent Mix” was added to the quenched conditioned media). Plates were incubated with detection reagents for 1 hour at room temperature prior to reading plates in HTRF mode.
HTRF signal (Emission at 620 nm and 665 nm) was assessed in both assays using the Envision plate reader in HTRF mode (Perkin Elmer, Waltham, Mass.). HTRF ratio was determined using the following formula: HTRF ratio=R=Emission at 665 nm/Emission at 620 nm×10,000. Subsequently % Residual Activity and % Inhibition were determined as follows:
Where R0% is the HTRF ratio of the negative control (0% enzyme activity), and R100% is the HTRF ratio of the positive control (100% enzyme activity). Data were analyzed in Microsoft Excel and graphed using GraphPad's Prism 7.0 software and IC50 values were obtained using non-linear regression, log (agonist) vs. response-variable slope (four parameters) analysis.
Anti-ENTPD2 mAb13 was identified as a mouse ENTPD2 selective Ab (FACS EC50 3-4 nM) with no binding to human or cyno ENTPD2.

B1: mAb13: anti-mouse ENTPD2 antibody; HC SEQ ID NO: 193, LC SEQ ID NO: 204 (antibody)
heavy: QVQLVQSGAELKQPGQSVKISCKASGYTFTHYGMNWVKQAPGQGLKWMGWINTDTGNPTYADDFKGRFVFSLDTSVSTAYLQISNLKNEDTATYYCVRYGTLYSGYGFFFDSWGQGTLVTVSSAKTTAPSVYPLAPVCGDTTGSSVTLGCLVKGYFPEPVTLTWNSGSLSSGVHTFPAVLQSDLYTLSSSVTVTSSTWPSQSITCNVAHPASSTKVDKKIEPRGPTIKPCPPCKCPAPNLLGGPSVFIFPPKIKDVLMISLSPIVTCVVVDVSEDDPDVQISWFVNNVEVHTAQTQTHREDYNSTLRVVSALPIQHQDWMSGKEFKCKVNNKDLPAPIERTISKPKGSVRAPQVYVLPPPEEEMTKKQVTLTCMVTDFMPEDIYVEWTNNGKTELNYKNTEPVLDSDGSYFMYSKLRVEKKNWVERNSYSCSVVHEGLHNHHTTKSFSRTPGK
light: DIMMTQSPSSLSVSAGEKATITCKSSQSLFNSNTNKNYLNWYLQKPGQSPKLLFYYASTRHTGVPDRFIGSGSGTDFTLTITSVQDEDLADYYCQQWYSYPWTFGPGTKLEIKRADAAPTVSIFPPSSEQLTSGGASVVCFLNNFYPKDINVKWKIDGSERQNGVLNSWTDQDSKDSTYSMSSTLTLTKDEYERHNSYTCEATHKTSTSPIVKSFNRNEC
NIH3T3-mouse ENTPD2 engineered cell line
  maximum target inhibition (mouse ENTPD2 inhibition): 44%
Mouse ENTPD2 NIH/3T3 cells, 100 nM
  % Inhibition at 100 nM (±Std Err): 44 ± 7.3%
